Several values for one entry are separate records, joined by “and”; a condition that tells them apart may be missing. Equal entries are not always repeated.
Details: Homo sapiens, pH 7, 25 °C, Sodium phosphate 20 mM, NaCl 100 mM, transition: 3, reversible: yes, whole UniProt chain shown

B1: Glutathione S-transferase A1 wild type, P08263 (protein)
chain: MAEKPKLHYFNARGRMESTRWLLAAAGVEFEEKFIKSAEDLDKLRNDGYLMFQQVPMVEIDGMKLVQTRAILNYIASKYNLYGKDIKERALIDMYIEGIADLGEMILLLPVCPPEEKDAKLALIKEKIKNRYFPAFEKVLKSHGQDYLVGNKLSRADIHLVELLYYVEELDSSLISSFPLLKALKTRISNLPTVKKFLQPGSPRKPPMDEKSLEEARKIFRF
- denaturant midpoint (higher = more stable) (GdnHCl, Absorbance): 1.5 M and 1.3 M and 2.3 M
- unfolding free energy (GdnHCl, Absorbance): 8.96 kcal/mol and 10.2 kcal/mol and 11.8 kcal/mol
- denaturant m value (GdnHCl, CD): 4.8 kcal/mol/M
- denaturant midpoint (higher = more stable) (GdnHCl, CD): 2.2 M
- unfolding free energy (GdnHCl, CD): 17 kcal/mol
- denaturant midpoint (higher = more stable) (GdnHCl, Fluorescence): 1.8 M and 1.1 M and 2.4 M
- denaturant m value (Urea, Absorbance): 2.12 kcal/mol/M and 2.31 kcal/mol/M
- denaturant midpoint (higher = more stable) (Urea, Absorbance): 4.8 M and 4.1 M
- unfolding free energy (Urea, Absorbance): 14 kcal/mol and 12.7 kcal/mol
- denaturant m value (Urea, CD): 3.38 kcal/mol/M and 3.67 kcal/mol/M
- denaturant midpoint (higher = more stable) (Urea, CD): 5.3 M and 4.8 M
- unfolding free energy (Urea, CD): 19.6 kcal/mol and 17.1 kcal/mol
